Measurements as given in the supplement of paper PMC12764529.
± gives the half width of the 95% confidence interval.

Assays:
[1] = folding stability dG unfold from trypsin proteolysis; higher = more stable
Summary of the method: (§1)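 Sequencing followed digestion of designed mini-proteins with trypsin and chymotrypsin, each at 11 concentrations in threefold dilutions together with a no-protease condition. The mini-proteins were under 80 residues, had no cysteine, sat in a PA-tagged cDNA display construct, and were kept only if AlphaFold2 dimer inter-PAE was above 15. From the counts, Bayesian fitting gave K50, and unfolding free energy was derived against a sequence-predicted unfolded-state K50 and a shared folded-state K50, per protease or combined.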

[2] = folding stability dG unfold from chymotrypsin proteolysis; higher = more stable
Summary of the method: as §1

[3] = folding stability dG unfold (combined trypsin and chymotrypsin); higher = more stable
Summary of the method: as §1

SAGGEAEVVEPEEKLEIVDKETGKKITVYKVKNKETGEEVVLVEIEKNGKKYTVLMTKDELEALLKKSAGGS [r16_603_TrROS_Hall]
folding stability dG unfold [1]: 2.38 ± 0.21 kcal/mol | folding stability dG unfold [2]: 3.29 ± 0.057 kcal/mol | folding stability dG unfold [3]: 2.98 ± 0.28 kcal/mol

SAKMSPEMRELVERLQDLYNENGYKVKIEMSNKPGMIRINVQMPNPRKKRKIKEALRGDGFPITRVEIYSAG [r14_284_TrROS]
folding stability dG unfold [1]: 1.62 ± 0.077 kcal/mol | folding stability dG unfold [2]: 0.929 ± 0.25 kcal/mol | folding stability dG unfold [3]: 1.36 ± 0.23 kcal/mol

SAGGSAGGSAGGKIIHPDLKKPLDVLEKFELIIGGKPYLFFLSRGEGELRLLVIPAGKESAGGSAGGSAGGS [r10_517_TrMRF]
folding stability dG unfold [1]: 1.54 ± 0.021 kcal/mol | folding stability dG unfold [2]: 2.53 ± 0.055 kcal/mol | folding stability dG unfold [3]: 2.15 ± 0.048 kcal/mol

SAGGSAGGSAGGSGMKYKVTVTFPGGEVRSLEVDSVEEALEKLKEENRPIKEVTVEPLESAGGSAGGSAGGS [r4_213_JUSTAS]
folding stability dG unfold [1]: 2.2 ± 0.14 kcal/mol | folding stability dG unfold [2]: 2.54 ± 0.13 kcal/mol | folding stability dG unfold [3]: 2.44 ± 0.16 kcal/mol

SAGGMIRVEDTSTSVSIDIEITPLPNGQYKATITTTTTSAKLLPNGTPVTTTTPTTSTVTITPDVPLLSAGG [r13_561_JUSTAS]
folding stability dG unfold [1]: 1.47 ± 0.053 kcal/mol | folding stability dG unfold [2]: 0.681 ± 0.15 kcal/mol | folding stability dG unfold [3]: 1.12 ± 0.14 kcal/mol

SAGGSAGGSDPPVVTVEVKEETLPNGEKIYIVTVTREDGTTKTLKFPASTSEEEIKEKVEKLLSAGGSAGGS [r12_1019_JUSTAS]
folding stability dG unfold [1]: 3.64 ± 0.3 kcal/mol | folding stability dG unfold [2]: 4.08 ± 0.18 kcal/mol | folding stability dG unfold [3]: 4.17 ± 0.35 kcal/mol

SAGKKKKKKLKITIEITYNKETNTVTIKITVDGKEITVEVKAKSKEEALLNALKELEKKLNIKIKEVKLSAG [r5_251_TrROS_Hall]
folding stability dG unfold [1]: 1.36 ± 0.13 kcal/mol | folding stability dG unfold [2]: 2.1 ± 0.18 kcal/mol | folding stability dG unfold [3]: 2.27 ± 0.36 kcal/mol

SAGGSAGGSAGKAKIVKIEKVKNKNGETYYIIKLEGKKEIFVIKDKNGKKKKIPLKELKPSAGGSAGGSAGG [r17_286_TrROS_Hall]
folding stability dG unfold [1]: 1.42 ± 0.043 kcal/mol | folding stability dG unfold [2]: 2.37 ± 0.026 kcal/mol | folding stability dG unfold [3]: 2.11 ± 0.048 kcal/mol

SAGGSAGGSAGEMYKIKIFNKETGKELTLVFESEEEAKEALKKKFPNAKIEIEKISKEELSAGGSAGGSAGG [r11_978_TrROS_Hall]
folding stability dG unfold [1]: 2.38 ± 0.13 kcal/mol | folding stability dG unfold [2]: 3.1 ± 0.13 kcal/mol | folding stability dG unfold [3]: 2.8 ± 0.23 kcal/mol

SAGGGTTITLSFADGTTKTLTLPGLTEVVEEPGRVVVRADVPERRVVVTFEPATGTITVEEFAPEEPVSAGG [r13_392_JUSTAS]
folding stability dG unfold [1]: 0.818 ± 0.1 kcal/mol | folding stability dG unfold [2]: 2.27 ± 0.057 kcal/mol | folding stability dG unfold [3]: 1.86 ± 0.25 kcal/mol

SAGGSAGGSAMSPTEAERARPVPVVKTETTVTLDPSGYRVETVTYDGGVTETVVTPLPPELASAGGSAGGSA [r18_192_JUSTAS]
folding stability dG unfold [1]: 0.0994 ± 0.04 kcal/mol | folding stability dG unfold [2]: -0.143 ± 0.11 kcal/mol | folding stability dG unfold [3]: 0.0301 ± 0.085 kcal/mol

SAGGSAMKKIPKENVEKVIEFTDKNGKKITIVYNKKTGKAYIFDKKTKKVIEIDMTEDEIKKLLKSSAGGSA [r15_810_TrROS_Hall]
folding stability dG unfold [1]: 1.1 ± 0.023 kcal/mol | folding stability dG unfold [2]: 2.13 ± 0.061 kcal/mol | folding stability dG unfold [3]: 1.89 ± 0.054 kcal/mol

SAGGSAGGSAGGKKIEIEFTVKILREPEPGELVPYEVKGKLEINIDPDGNLKIELKFEPGSAGGSAGGSAGG [r11_607_TrMRF]
folding stability dG unfold [1]: 2.81 ± 0.11 kcal/mol | folding stability dG unfold [2]: 3.26 ± 0.073 kcal/mol | folding stability dG unfold [3]: 3.06 ± 0.15 kcal/mol

SAGGSAGGSAGGSPSETLEVTLADGTRLTVTRNADGSLTVTVEPAPPPPVVVFKSPEELSAGGSAGGSAGGS [r4_120_TrROS_Hall]
folding stability dG unfold [1]: 1.44 ± 0.025 kcal/mol | folding stability dG unfold [2]: 0.623 ± 0.14 kcal/mol | folding stability dG unfold [3]: 1.14 ± 0.096 kcal/mol

SMVVIEFETKKPKEQAEKAVEKAKKEIPELEEVLEIEVEEFPDFLKVKIVLKGGKITPEDLEKLKEFLEKSA [r9_195_TrMRF]
folding stability dG unfold [1]: 2.67 ± 0.27 kcal/mol | folding stability dG unfold [2]: 2.4 ± 0.071 kcal/mol | folding stability dG unfold [3]: 2.63 ± 0.27 kcal/mol

SAGGSAGGSAGGSMLVELDENGKTLTIYDEETQELIEVEVEPAPPVEETVTEVSEEELKSAGGSAGGSAGGS [r4_56_TrROS_Hall]
folding stability dG unfold [1]: 0.666 ± 0.098 kcal/mol | folding stability dG unfold [2]: 0.000558 ± 0.08 kcal/mol | folding stability dG unfold [3]: 0.375 ± 0.26 kcal/mol

SAPPNHRMVMYEIPIPPGMEIGDEIKLKIKVPGKEYPIKIDRIPNLPPGMRVRIMFNLDNGQFMIQILPSAG [r14_554_TrROS]
folding stability dG unfold [1]: 2.52 ± 0.1 kcal/mol | folding stability dG unfold [2]: 2.69 ± 0.062 kcal/mol | folding stability dG unfold [3]: 2.77 ± 0.26 kcal/mol

SAGWYIKIKIEYPGDGQKKLEVPIPIPSPEEAKEFADEIADMLAEQNGGNIKIEVEVFRLPPVPPEDQGSAG [r5_87_TrROS]
folding stability dG unfold [1]: 0.544 ± 0.11 kcal/mol | folding stability dG unfold [2]: 2.2 ± 0.15 kcal/mol | folding stability dG unfold [3]: 1.82 ± 0.21 kcal/mol

SAGGGSFINISKKEIAEAISKLIGKDYPLEDVKVSVTTLPENKTIINVEIKLPNTTETLYIPILFDVSAGGS [r16_42_TrMRF]
folding stability dG unfold [1]: 2.09 ± 0.094 kcal/mol | folding stability dG unfold [2]: 1.7 ± 0.018 kcal/mol | folding stability dG unfold [3]: 1.91 ± 0.068 kcal/mol

SAGGKKIRIVMTEEEIKKLAEALAKELNVEVKIVKVEKKTVFDKNGKPVKTYVVVEIEVKKLPPGVKLSAGG [r13_943_TrROS_Hall]
folding stability dG unfold [1]: 1.3 ± 0.099 kcal/mol | folding stability dG unfold [2]: 1.56 ± 0.056 kcal/mol | folding stability dG unfold [3]: 1.57 ± 0.16 kcal/mol

SAGGSAGGSNMPIKNVELHPLPNGWYLIKIRYGGKTRTFLFPPGAPFEIPLPPGMEIDIYPLNSAGGSAGGS [r12_373_TrROS]
folding stability dG unfold [1]: 3.73 ± 0.066 kcal/mol | folding stability dG unfold [2]: 3.933 ± 0.038 kcal/mol | folding stability dG unfold [3]: 3.84 ± 0.043 kcal/mol
